Assay results published in patent publication US20250327089A1.

Target: target receptor on brush border membrane vesicles (BBMVs) from C. includens (Pseudoplusia includens (C. includens))

PtIP-65Aa polypeptide (Pteridophyta Insecticidal Protein-65Aa)
EC50: 14 nM
